Consider two substances from patent publication US20230346969A1, “INTERMEDIATE FOR PREPARING ANTIBODY-DRUG CONJUGATE (ADC), PREPARATION METHOD THEREFOR, AND USE THEREOF” (priority 2020, published 2023).

A short description of series [1]: Preparation of control ADC via hydrophobic VC linker (behaviour in solution). Type of series: physicochemical. As to conditions: hydrophobic VC linker with PTX payload. The protocol:
A Troptargeted hRS7-VC-PTX molecule was prepared via a hydrophobic VC linker (FIG. 1a).

Series [2] concerns the target Human trophoblast cell surface antigen 2 (Trop-2), on tumor cell lines (human) (UniProt P09758). Kind of series: flow cytometry background, taken as human IgG1 isotype control; cell line printed 'SK8RS' (probably SKBR3). (Flow cytometry measures light scatter and fluorescence of single cells or particles in a stream.)
Series [3] shares this target. Kind of series: flow cytometry background, taken as human IgG1 isotype control; cell line printed 'H123' (probably HT29).
For series [4] the target is unchanged. Kind of series: flow cytometry background, taken as human IgG1 isotype control; cell line printed '3128' (probably HT29).
For series [5] the target is unchanged. Kind of series: flow cytometry background, taken as human IgG1 isotype control; cell line printed 'Cepes-3' (probably Capan-1).
For series [6] the target is unchanged. Kind of series: flow cytometry background, taken as human IgG1 isotype control; cell line printed 'Cxoo-1' (probably Capan-1).
Series [7] has the same target. Kind of series: flow cytometry background, taken as human IgG1 isotype control; cell line printed 'CPAC-1' (probably CFPAC-1).
Series [8] shares this target. The series is described as follows: flow cytometry background, taken as human IgG1 isotype control; cell line CFPAC-1.
For series [9] the target is unchanged. The series is described as follows: flow cytometry background, taken as human IgG1 isotype control; cell line printed 'SRM-C-21H' (probably SCLC-21H).
Series [10] has the same target. Kind of series: flow cytometry background, taken as human IgG1 isotype control; cell line printed 'COXC28' (probably COLO205).
Series [11] shares this target. The series is described as follows: flow cytometry background, taken as human IgG1 isotype control; cell line printed 'HCl-11685' (probably NCI-H1688, called Trop-2-negative in paragraph 230).
For series [12] the target is unchanged. The series is described as follows: flow cytometry background, taken as human IgG1 isotype control; cell line printed 'MCP-83-21' (probably MDA-MB-231).
Series [13] has the same target. Kind of series: flow cytometry background, taken as human IgG1 isotype control; cell line printed 'HOC2401' (probably NCIH2452).
The target is the same in series [14]. Kind of series: flow cytometry background, taken as human IgG1 isotype control; cell line printed 'MOA-413-468' (probably MDA-MB-468).
For series [15] the target is unchanged. The series is described as follows: flow cytometry background, taken as human IgG1 isotype control; cell line printed 'BKFC-Y' (probably BXPC-3).
Series [16] shares this target. Kind of series: flow cytometry background, taken as human IgG1 isotype control; cell line printed 'SK-WSS-7' (probably SK-MES-1).
Series [17] shares this target. Kind of series: flow cytometry background, taken as human IgG1 isotype control; cell line printed 'SK-M55-1' (probably SK-MES-1).
Series [18] has the same target. Kind of series: flow cytometry background, taken as human IgG1 isotype control; cell line printed 'NCl-H1828' (probably NCI-H1688, called Trop-2-negative in paragraph 230).
The target is the same in series [19]. Kind of series: flow cytometry background, taken as human IgG1 isotype control; cell line printed 'HOC1906' (probably HCC1806).
Series [20] shares this target. The series is described as follows: flow cytometry background, taken as human IgG1 isotype control; cell line printed 'SKERS' (probably SKBR3).
Series [21] has the same target. Kind of series: flow cytometry background, taken as human IgG1 isotype control; cell line printed 'SRM-M9-409' (probably MDA-MB-468).
Series [22] shares this target. The series is described as follows: flow cytometry background, taken as human IgG1 isotype control; cell line printed 'SRM-K9-231' (probably MDA-MB-231).
Series [23] has the same target. The series is described as follows: flow cytometry background, taken as human IgG1 isotype control; cell line printed 'CCAO205' (probably COLO205).
Series [24] shares this target. The series is described as follows: flow cytometry background, taken as human IgG1 isotype control; cell line printed 'HCCHOI' (probably HCC1806).
Series [25] has the same target. Kind of series: flow cytometry background, taken as human IgG1 isotype control; cell line printed 'RMCA' (pancreas; probably BXPC-3).
Series [26] shares this target. The series is described as follows: flow cytometry background, taken as human IgG1 isotype control; cell line printed 'ECLC 214' (probably SCLC-21H).

Sequence of UniProt P09758 (P09758 27-323): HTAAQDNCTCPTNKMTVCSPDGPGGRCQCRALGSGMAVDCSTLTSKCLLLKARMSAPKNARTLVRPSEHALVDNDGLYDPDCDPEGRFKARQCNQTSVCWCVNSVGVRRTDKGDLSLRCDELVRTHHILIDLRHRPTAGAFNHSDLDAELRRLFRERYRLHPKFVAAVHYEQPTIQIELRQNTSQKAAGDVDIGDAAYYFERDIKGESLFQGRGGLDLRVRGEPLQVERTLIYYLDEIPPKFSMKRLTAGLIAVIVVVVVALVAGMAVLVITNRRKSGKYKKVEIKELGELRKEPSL

In the case of hRS7-VC-PTX, in series [1], the “behaviour in solution during the preparation process” value was “completely precipitated out of solution”.
For the substance human IgG1 isotype control (antibody), the MFI (background) in series [2] turned out to be 1830 MFI; in [3], 894 MFI; in series [4] it was 866 MFI; in series [5], 3580 MFI; in series [6] it was 3650 MFI; in [7] it was 1580 MFI. For the same substance, the MFI (background) in series [8] is 1580 MFI; in [9] it was 1220 MFI; in series [10], 811 MFI; in series [11], 868 MFI; in series [12], 1250 MFI; in [13], 1580 MFI. Besides, the MFI (background) in [14] was found to be 678 MFI; in [15], 1670 MFI; in series [16] it was 691 MFI; in [17], 801 MFI; in series [18], 480 MFI; in series [19], 192 MFI. For the same substance, the MFI (background) in [20] stood at 1850 MFI; in series [21] it was 378 MFI; in series [22] it was 1250 MFI; in [23], 1530 MFI; in [24] it was 692 MFI; in series [25] it was 1080 MFI. This substance displayed an MFI (background) in [26] of 1230 MFI.
